Experimental data published in patent publication US20260183370A1 (ASCENDIS PHARMA GROWTH DISORDERS A S, published 2026).
Bridge positions count the residues as written; N and C are the ends. Side chains are listed from the residue outwards. Ends that are not written are not given here. * marks the point of attachment. Hexanoyl(6-maleimido) = O=C1C=CC(=O)N1CCCCCC(=O)*; reversible prodrug linker = not defined here

T1: NPR-C (natriuretic peptide receptor C), expressed on Hek293 cells (UniProt P17342 27-541, limits assumed)
T1 construct: whole, on cells
T1 sequence (looked up): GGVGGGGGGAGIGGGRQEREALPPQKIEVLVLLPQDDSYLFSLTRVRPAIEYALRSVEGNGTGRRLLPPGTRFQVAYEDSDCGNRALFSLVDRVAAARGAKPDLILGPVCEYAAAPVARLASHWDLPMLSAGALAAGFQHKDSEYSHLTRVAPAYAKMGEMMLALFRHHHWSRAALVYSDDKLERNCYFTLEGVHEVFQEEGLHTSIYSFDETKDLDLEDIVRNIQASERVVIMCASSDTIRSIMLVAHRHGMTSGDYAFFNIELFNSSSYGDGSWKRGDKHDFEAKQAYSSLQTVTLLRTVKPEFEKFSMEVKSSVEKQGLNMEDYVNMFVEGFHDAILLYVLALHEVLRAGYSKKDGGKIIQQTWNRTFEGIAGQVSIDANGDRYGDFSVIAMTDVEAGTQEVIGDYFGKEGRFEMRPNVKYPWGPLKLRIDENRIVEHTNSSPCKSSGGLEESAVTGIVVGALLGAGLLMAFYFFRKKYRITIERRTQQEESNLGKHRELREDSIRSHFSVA

T2: NPR-B receptor (natriuretic peptide receptor B), endogenous on NIH-3T3 cells (murine (endogenous in NIH-3T3 cells), UniProt Q6VVW5 17-1047)
T2 sequence (looked up): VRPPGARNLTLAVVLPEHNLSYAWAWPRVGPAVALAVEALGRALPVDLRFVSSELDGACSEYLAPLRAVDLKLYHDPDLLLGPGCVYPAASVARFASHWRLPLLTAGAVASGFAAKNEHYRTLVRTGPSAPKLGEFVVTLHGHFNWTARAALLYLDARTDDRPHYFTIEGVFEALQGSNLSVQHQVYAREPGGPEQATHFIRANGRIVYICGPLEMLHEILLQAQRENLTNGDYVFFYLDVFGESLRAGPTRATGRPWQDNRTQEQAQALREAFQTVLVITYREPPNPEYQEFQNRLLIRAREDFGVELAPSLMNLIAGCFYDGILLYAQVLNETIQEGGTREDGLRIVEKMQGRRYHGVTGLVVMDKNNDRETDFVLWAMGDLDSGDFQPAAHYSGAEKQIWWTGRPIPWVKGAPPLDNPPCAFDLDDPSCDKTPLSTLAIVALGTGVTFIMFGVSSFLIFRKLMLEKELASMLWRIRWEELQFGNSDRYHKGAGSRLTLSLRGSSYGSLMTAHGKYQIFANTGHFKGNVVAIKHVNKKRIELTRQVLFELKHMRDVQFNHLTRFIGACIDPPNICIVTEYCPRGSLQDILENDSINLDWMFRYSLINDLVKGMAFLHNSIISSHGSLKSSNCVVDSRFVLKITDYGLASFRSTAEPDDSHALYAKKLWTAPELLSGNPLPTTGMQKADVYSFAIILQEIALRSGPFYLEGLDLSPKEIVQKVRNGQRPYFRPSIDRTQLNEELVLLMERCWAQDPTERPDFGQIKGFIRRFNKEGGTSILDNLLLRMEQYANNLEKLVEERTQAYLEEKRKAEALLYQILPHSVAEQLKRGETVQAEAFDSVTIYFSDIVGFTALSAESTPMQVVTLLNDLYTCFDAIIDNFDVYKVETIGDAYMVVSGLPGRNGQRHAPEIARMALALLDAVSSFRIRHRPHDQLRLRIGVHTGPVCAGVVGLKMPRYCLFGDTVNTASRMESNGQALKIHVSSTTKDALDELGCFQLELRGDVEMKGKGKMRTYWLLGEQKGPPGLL


How the values were obtained:
[1] = biological target: T1, NPR-C (natriuretic peptide receptor C), …; test: competition with fluorescein-labelled CNP-38 27d on NPR-C expressing Hek293 cells, flow cytometry (MFI), 4PL fit; ratio to CNP-38
From the text: For the NPR—C affinity assay, a NPR—C expressing Hek293 cell line was developed. The coding region of the NPR—C sequence (BC131540) was cloned into a lentiviral vector under CMV promoter for constitutive receptor expression. A bicistronic element located on the vector for puromycin resistence was used as eukaryotic selection marker. After transduction, stably growing cell pools were subjected to qRT-PCR for confirmation of receptor mRNA-expression compared to parental Hek293 cells. An NPR—C-expressing cell pool was expanded and frozen as master cell bank for CNP sample testing.
For the assay, growing cells were trypsinized from the cell flask bottom, counted, and seeded in a 96-well plate (1.5×10⁵/well) and centrifuged. Supernatants were discarded. CNP standard and sample were serially diluted over 9 steps in PBS 0.2% BSA and transferred to the micro plate in duplicates and mixed with cells. […] Subsequently, cells were analyzed by flow cytometry using mean fluorescence intensity of the FITC channel (FL1, Beckman Coulter FC500MPL) as read out.

[2] = biological target: T2, NPR-B receptor (natriuretic peptide …); test: cell-based or functional assay
[3] = biological target: T2, NPR-B receptor (natriuretic peptide …); test: cell-based or functional assay; remark: listed apart in the source

Binder | IC50 of PEGylated CNP-38/IC50 CNP-38 [1] | EC50 compound/EC50 CNP-38 (residual NPR-B activity, cGMP production in NIH-3T3 cells) [2] | EC50 compound/EC50 CNP-38 (cGMP production in NIH-3T3 cells) [3]
{PEG 5 kDa-Hexanoyl(6-maleimido)}-LQEHPNARKYKGANKKGLSKGCFGLKLDRIGSMSGLGC (disulfide 22-38) [Permanent N-terminal CNP-38 PEG 5 kDa conjugate 15e] | 0.53 ratio | > 5 ratio | –
LQEHPNARKYKGANKKGLSKGCFGLK([reversible prodrug linker-4x10 kDa PEG])LDRIGSMSGLGC (disulfide 22-38; reading uncertain, This is a reversible conjugate with an in vitro release half-life of 9.5 d) [Reversible Lys26 CNP-38 PEG4x10 kDa conjugate 11i] | 91 ratio | > 100 ratio | –
LQEHPNARKYKGANKKGLSKGCFGLKLDRIGSMSGLGC (5 kDa PEG stably attached through maleimidohexanoyl/thiol to the side chain of Lys26 (ring lysine); disulfide Cys22-Cys38) [Permanent Lys26 CNP-38 PEG 5 kDa conjugate 19e] | 1.1 ratio | > 100 ratio | –
LQEHPNARKYKGANKKGLSKGCFGLKLDRIGSMSGLGC (disulfide 22-38; not fully specified (residue 26)) [Permanent Lys26 CNP-38 PEG4x10 kDa conjugate 12g] | 143 ratio | > 100 ratio | –
LQEHPNARKYKGANKKGLSKGCFGLKLDRIGSMSGLGC (not fully specified; Lys26 side chain attached through a reversible Asn-linker (maleimidohexanoyl) to a thiol arm of 4-arm-thiol-PEG 40 kDa; disulfide Cys22-Cys38) [Conjugate 31d (4-arm PEG 40 kDa, Lys26 CNP-38, reversible conjugate)] | 1.7 ratio | – | –
LQEHPNARKYKGANKKGLSKGCFGLKLDRIGSMSGLGC (disulfide 22-38; not fully specified (residue 26), This is a reversible conjugate with an in vitro release half-life of 8.5 d) [Reversible Lys26 CNP-38 PEG2x20 kDa conjugate 10f] | 12 ratio | > 100 ratio | –
LQEHPNARKYKGANKKGLSKGCFGLKLDRIGSMSGLGC (disulfide 22-38) | – | – | 1 ratio
